Where a chain is given by its changes, count along the chain named.

Test [1] concerns the target T1, human CXCR4 (human, UniProt P61073 1-352). The test is described as follows: competition flow cytometry on CEM cells: unlabeled antibody titrated against a constant concentration of FITC-labeled F9, fluorescent geometric mean; unit from the axis 'Ab Concentration in nM'.
The target in test [2] is T1, human CXCR4. The test is described as follows: cell-based or functional assay.
Test [3] deals with T1, human CXCR4. The test is described as follows: flow cytometry titration on CEM cells (native human CXCR4), FITC anti-human IgG secondary, MFI; unit from the axis 'Conc in nM'. As for the experimental part: (§1) The antibodies were then mixed with CEM cells and allowed to bind before being detected with a FITC-conjugated anti-human IgG secondary antibody. The cells were then analyzed by fluorescent cytometry.

The target in test [4] is T1, human CXCR4. The test is described as follows: flow cytometry on CEM cells, FITC anti-human IgG detection. As for the experimental part:
as §1

Test [5] has as its target T1, human CXCR4. The test is described as follows: radioligand competition on CEM cells; competitor 100 pM 125I-SDF-1. The protocol:
The anti-CXCR4 antibodies were serially diluted 1:3 to yield a range of concentrations from 300 nM to 137 pM. […] An irrelevant antibody of the same isotype was used as a negative control.

Test [6] addresses T1, human CXCR4. The experiment in a line: flow cytometry titration on CEM cells (native human CXCR4), FITC anti-human IgG secondary, MFI; unit from the axis 'Conc in nM'; the curve is still rising at the highest concentration, no upper plateau. As for the experimental part: as §1
Test [7] addresses T1, human CXCR4. The experiment in a line: competition flow cytometry on CEM cells: unlabeled antibody titrated against a constant concentration of FITC-labeled F9, fluorescent geometric mean; unit from the axis 'Ab Concentration in nM'; the fitted value lies above the highest concentration shown (about 300 nM), inhibition is only partial. The protocol:
To determine the ability of a panel of anti-CXCR4 antibodies to compete for binding to CXCR4, competition studies were performed. […] The mixture of antibodies was then added to CEM cells and allowed to bind.

T1 sequence (P61073 whole entry): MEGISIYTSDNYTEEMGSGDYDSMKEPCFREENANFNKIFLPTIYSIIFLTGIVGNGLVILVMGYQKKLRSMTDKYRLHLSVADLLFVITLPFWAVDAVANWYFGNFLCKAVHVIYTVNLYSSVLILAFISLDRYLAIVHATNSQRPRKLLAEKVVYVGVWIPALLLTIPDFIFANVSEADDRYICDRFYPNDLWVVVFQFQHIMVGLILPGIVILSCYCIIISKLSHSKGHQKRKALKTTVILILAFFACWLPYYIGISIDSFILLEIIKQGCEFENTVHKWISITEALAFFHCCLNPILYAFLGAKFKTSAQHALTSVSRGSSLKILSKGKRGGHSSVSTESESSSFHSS

In the test with human CXCR4 [1], “murine monoclonal anti-CXCR4 antibody 12G5” showed an EC50 of 102 nM.

B1: anti-CXCR4 human monoclonal antibody D1 (antibody, V domains shown)
VH: EVQLVQSGGGLVQPGGSLRLSCAAAGFTFSSYSMNWVRQAPGKGLEWVSYISSRSKTIYYADSVKGRFTISRDNARNSLYLQMNSLRDEDTAVYYCARDYGGQPPYYYYYGMDVWGQGTTVTVSS
VL: VIWVTQSPSSLSASVGDRVTITCRTSQGISSWLAWYQQKPEKAPELLIYAASSLQSGVPSRFSGSGSGTDFTLTISSLQPEDFATYYCQQYNSYPRTFGQGTKVEIK
notes: Tested as full-length antibody
Consider B1, for which, in the test with human CXCR4 [2], the “EC50 for inhibition of SDF-1-induced calcium flux in CEM cells” value came to 0.57 nM. Moreover, the EC50 came to 59.2 nM with human CXCR4 [1], 79.9 nM with human CXCR4 [3], 80 nM with human CXCR4 [4] and 28.6 nM with human CXCR4 [5].

B2: anti-CXCR4 human monoclonal antibody E2 (antibody, V domains shown)
VH: B1 VH with K56R, R76K, Y107H
VL: B1 VL with V1E, W3V, V4L, T25A, S31N, E45K, L46S
notes: as for B1
For the molecule B2, the EC50 in the test with human CXCR4 [6] is 290 nM; with human CXCR4 [7], 469 nM; with human CXCR4 [4] it was 290 nM.

These data come from patent US8450464 (Bristol-Myers Squibb, dated 2013).
